Positions count from the first letter of the chain named. Names and notes keep the numbering of the source.

First the molecules themselves.
T1: TGFβ2 (R&D Systems)
T1 construct: also called TGFB2
T1 sequence (P61812 303-414, species assumed, looked up): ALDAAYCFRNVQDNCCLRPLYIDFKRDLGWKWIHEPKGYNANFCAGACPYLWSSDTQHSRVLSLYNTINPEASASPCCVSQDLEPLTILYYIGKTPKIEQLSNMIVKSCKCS

T2: TGFβ3 (R&D Systems) (Homo sapiens (Human), UniProt P10600 301-412, Active TGFβ3 is a disulfide-linked homodimer of this chain; one copy is given.)
T2 construct: also called TGFB3
T2 sequence: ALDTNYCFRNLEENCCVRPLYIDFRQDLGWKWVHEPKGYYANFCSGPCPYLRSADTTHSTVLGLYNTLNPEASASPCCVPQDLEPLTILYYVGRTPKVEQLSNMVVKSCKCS

B1: affinity matured HcLb 269 (antibody, V domains shown)
VH: EVQLVQSGAEVKKPGASVKVSCKTSGYTFMTYWMNWVRQAPGAGLDWMGQIFPAWGMTNYNEMFEGRVTLTADTSTSTAYMELSSLRAGDIAVYYCARGYGNYALDAMDYWGQGTLVTVSS
VL: DIVMTQTPPSLSVSPRETASISCRASESVDSYGNSFMHWYLQKPGQSPQLLIYLASNLESGVSDRFSGSGSGTDFTLRISRVEANDTGVYYCQQNDEDPLSFGQGTK
notes: full IgG; also called canHcLb/55SW/100DY/57SM/30IM + canHcLb/237ND/242TS
B2: affinity matured HcLb 268 (antibody, V domains shown)
VH: B1 VH with T28I, T31K
VL: DIVMTQTPPSLSVSPRETASISCRASESVDSYGNSFMHWYLQKPGQSPQLLIYLASNLESGVSDRFSGSGSGTDFTLRISRVEANDTGVYYCQQNNEDPLTFGQ
notes: full IgG; constant regions not restated
B3: affinity matured HcLb 264 (antibody, V domains shown)
VH: B1 VH with T28I, T31K, M57S
VL: B1 VL
notes: full IgG; also called canHcLb/55SW/100DY/30IM/31TK/28TI + canHcLb/237ND/242TS
B4: affinity matured HcLb 275 (antibody, V domains shown)
VH: B1 VH with T28K, M30W, T31F
VL: B1 VL
notes: full IgG; also called canHcLb/55SW/100DY/57SM/30IW/31TF/28TK + canHcLb/237ND/242TS
B5: affinity matured HcLb 271 (antibody, V domains shown)
VH: B1 VH with T31F
VL: B1 VL
notes: full IgG; also called canHcLb/55SW/100DY/57SM/30IM/31TF + canHcLb/237ND/242TS
B6: affinity matured HcLb 266 (antibody, V domains shown)
VH: B1 VH with T28I, T31K
VL: B1 VL
notes: full IgG; also called canHcLb/55SW/100DY/30IM/31TK/28TI/57SM + canHcLb/237ND/242TS
B7: affinity matured HcLb 189 (antibody, V domains shown)
VH: B1 VH with M30I, M57S
VL: B1 VL
notes: full IgG; also called canHcLb/S55W/D100Y + canHcLb/237ND/242TS
B8: affinity matured HcLb 272 (antibody, V domains shown)
VH: B1 VH with T28K, T31F
VL: B1 VL
notes: full IgG; also called canHcLb/55SW/100DY/57SM/30IM/31TF/28TK + canHcLb/237ND/242TS
B9: affinity matured HcLb 267 (antibody, V domains shown)
VH: B1 VH with T28I, T31K, M57S
VL: B2 VL
notes: as for B2
B10: affinity matured HcLb 205 (antibody, V domains shown)
VH: B1 VH with T28I, M30I, M57S
VL: B1 VL
notes: full IgG; also called canHcLb/S55W/D100Y/T28/I + canHcLb/237ND/242TS
B11: affinity matured HcLb 265 (antibody, V domains shown)
VH: B1 VH with T31K
VL: B1 VL
notes: full IgG; also called canHcLb/55SW/100DY/30IM/31TK/57SM + canHcLb/237ND/242TS
B12: affinity matured HcLb 270 (antibody, V domains shown)
VH: B1 VH
VL: B1 VL
notes: full IgG; also called canHcLb/55SW/100DY/57SV/30IM + canHcLb/237ND/242TS
B13: affinity matured HcLb 190 (antibody, V domains shown)
VH: B1 VH with M30I, A54G, W55S, M57S
VL: B1 VL
B14: affinity matured HcLb 91 (antibody, V domains shown)
VH: B1 VH with M30I, M57S, Y100D
VL: B2 VL
B15: affinity matured HcLb 27 (antibody, V domains shown)
VH: B1 VH with M30I, W55S, M57S
VL: B2 VL
B16: affinity matured HcLb 73 (antibody, V domains shown)
VH: B1 VH with M30I, W55S, M57S
VL: B1 VL with S101T
B17: affinity matured HcLb 187 (antibody, V domains shown)
VH: B1 VH with M30I, A54G, W55S, M57S
VL: B2 VL
B18: Can-SL501-VH3 Q110H / Can-SL501-VL2 (antibody, V domains shown)
VH: EVQLVESGGDLVKPGGSLRLSCVASGFTFSSYGMHWVRQAPGKELEWVAVISYDGSIKYYADAVKGRFTISRDNAKNTLYLQMNSLRAEDTAVYYCARTGEYSGYDTDPHYSWGQGTTVTVSS
VL: EIVMTQSPGSLAGSAGESVSINCRASQGIGDDLGWYQQKPGERPKLLIYGTSTLQSGVPARFSSSGSGTDFTLTINNLQAEDVGDYYCLQDSNYPLTFGAGTK
B19: Can-SL501-VH3 S112T / Can-SL501-VL2 (antibody, V domains shown)
VH: B18 VH with H110Q, S112T
VL: B18 VL
B20: Can-SL501-VH3 Y111W / Can-SL501-VL2 (antibody, V domains shown)
VH: B18 VH with H110Q, Y111W
VL: B18 VL
B21: Can-SL501-VH3 Q110V / Can-SL501-VL2 (antibody, V domains shown)
VH: B18 VH with H110V
VL: B18 VL
B22: Can-SL501-VH3 S112P / Can-SL501-VL2 (antibody, V domains shown)
VH: B18 VH with H110Q, S112P
VL: B18 VL
B23: Can-SL501-VH3 Y111M / Can-SL501-VL2 (antibody, V domains shown)
VH: B18 VH with H110Q, Y111M
VL: B18 VL
B24: Can-SL501-VH3 S112L / Can-SL501-VL2 (antibody, V domains shown)
VH: B18 VH with H110Q, S112L
VL: B18 VL
B25: Can-SL501-VH3 Y111H / Can-SL501-VL2 (antibody, V domains shown)
VH: B18 VH with H110Q, Y111H
VL: B18 VL
B26: Can-SL501-VH3 S112N / Can-SL501-VL2 (antibody, V domains shown)
VH: B18 VH with H110Q, S112N
VL: B18 VL
B27: Can-SL501-VH3 Y111V / Can-SL501-VL2 (antibody, V domains shown)
VH: B18 VH with H110Q, Y111V
VL: B18 VL
B28: Can-SL501-VH3 Q110T / Can-SL501-VL2 (antibody, V domains shown)
VH: B18 VH with H110T
VL: B18 VL
B29: Can-SL501-VH3 S112G / Can-SL501-VL2 (antibody, V domains shown)
VH: B18 VH with H110Q, S112G
VL: B18 VL
B30: Can-SL501-VH3 S112A / Can-SL501-VL2 (antibody, V domains shown)
VH: B18 VH with H110Q, S112A
VL: B18 VL
B31: Can-SL501-VH3 Y111P / Can-SL501-VL2 (antibody, V domains shown)
VH: B18 VH with H110Q, Y111P
VL: B18 VL

The first test addresses T3, TGFβ1 (R&D Systems).
T3 construct: also called TGFB1
The experiment in a line: SPR full titration.
The term Kd denotes the equilibrium constant for the complex coming apart. A lower Kd goes with a tighter complex. As for B1, the dissociation constant Kd turned out to be 4.4 nM.

Turning to B2, the Kd turned out to be 5.34 nM.

Take B3: the affinity, expressed as Kd, was 2.69 nM.

In turn, B4 showed an equilibrium dissociation constant (Kd) of 2.39 nM.

The molecule B5 showed a dissociation constant Kd of 2.3 nM.

In the case of B6, binding was put at a Kd of 2.4 nM.

As for B7, the affinity, expressed as Kd, was 2.65 nM.

B8 displayed a Kd of 2.39 nM.

B9 had a Kd of 5.1 nM.

Regarding B10, the Kd was 1.78 nM.

B11 gave a dissociation constant (Kd) of 3.24 nM.

In a further test the target is T1, TGFβ2 (R&D Systems). The experiment in a line: SPR full titration.
As to B1, binding was characterised by a dissociation constant (Kd) of 3.05 nM.

For the molecule B2, binding was put at a Kd of 3.96 nM.

As to B3, binding was put at a Kd of 3.89 nM.

B4 returned a dissociation constant Kd of 2.91 nM.

B5 displayed a Kd of 1.28 nM.

For B6, binding was characterised by a dissociation constant (Kd) of 2.9 nM.

For B7, the Kd came out at 0.922 nM.

B8 returned a Kd of 2.02 nM.

As to B9, the dissociation constant Kd was determined as 3.77 nM.

B10 had a Kd of 2.09 nM.

For B11, binding was put at a Kd of 2.82 nM.

Another test concerns the target T2, TGFβ3 (R&D Systems). The experiment in a line: SPR full titration.
Turning to B1, the Kd turned out to be 0.99 nM.

B12 returned a Kd of 1.19 nM.

B2 registered a Kd of 1.03 nM.

In the case of B3, the affinity, expressed as Kd, was 3.75 nM.

With B4, the dissociation constant (Kd) amounted to 0.824 nM.

B5 came in with a Kd of 0.957 nM.

In turn, B6 displayed a Kd of 0.453 nM.

The molecule B7 returned a Kd of 0.226 nM.

For the molecule B8, the equilibrium dissociation constant (Kd) turned out to be 0.895 nM.

B9 had a Kd of 1.01 nM.

For B10, the Kd stood at 0.005 nM.

For the molecule B11, the affinity, expressed as Kd, was 0.7 nM.

In a further test the target is T3, TGFβ1 (R&D Systems). The experiment in a line: cell-based or functional assay.
T3 sequence (P01137 279-390): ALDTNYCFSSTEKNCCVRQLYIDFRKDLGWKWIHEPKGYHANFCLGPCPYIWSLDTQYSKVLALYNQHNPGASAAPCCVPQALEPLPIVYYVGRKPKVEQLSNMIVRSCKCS
Consider B13, for which the “pSmad-3, IC50” value stood at 3.26 nM.

On to B14, for which the “pSmad-3, IC50” value amounted to 2.16 nM.

For B15, the “pSmad-3, IC50” value amounted to 1.43 nM.

With B16, the “pSmad-3, IC50” value was 1.17 nM.

As for B17, the “pSmad-3, IC50” value is 0.82 nM.

As to B7, the “pSmad-3, IC50” value amounted to 2.21 nM.

Another test has as its target T1, TGFβ2 (R&D Systems). The experiment in a line: cell-based or functional assay.
With B13, the “pSmad-3, IC50” value turned out to be 2.77 nM.

Regarding B14, the “pSmad-3, IC50” value is 4.43 nM.

B15: the “pSmad-3, IC50” value came to 8.24 nM.

With B16, the “pSmad-3, IC50” value was determined as 8.42 nM.

For B17, the “pSmad-3, IC50” value was 2.08 nM.

Consider B7, for which the “pSmad-3, IC50” value was found to be 3.29 nM.

Another test addresses T2, TGFβ3 (R&D Systems). The experiment in a line: cell-based or functional assay.
As for B13, the “pSmad-3, IC50” value stood at 7.79 nM.

In the case of B14, the “pSmad-3, IC50” value worked out at 2.31 nM.

Take B15: the “pSmad-3, IC50” value amounted to 1.7 nM.

Regarding B16, the “pSmad-3, IC50” value was determined as 1.24 nM.

In the case of B17, the “pSmad-3, IC50” value was found to be 8.61 nM.

On to B7, for which the “pSmad-3, IC50” value was 2.13 nM.

The next test concerns the target T3, TGFβ1 (R&D Systems). The experiment in a line: single point SPR.
B18 yielded a Kd of 5.76 nM.

With B19, the Kd was determined as 3.51 nM.

In turn, B20 showed a dissociation constant (Kd) of 13.9 nM.

B21 returned a dissociation constant (Kd) of 7.37 nM.

In turn, B22 had a Kd of 2.8 nM.

Molecule B23 returned a Kd of 1.17 nM.

B24 returned a Kd of 6.97 nM.

As to B25, the Kd is 4.5 nM.

B26: the affinity, expressed as Kd, was 3.4 nM.

Regarding B27, the equilibrium dissociation constant (Kd) was determined as 0.93 nM.

Regarding B28, binding was put at a Kd of 5.61 nM.

The molecule B29 displayed a Kd of 0.762 nM.

As to B30, binding was put at a Kd of 0.877 nM.

On to B31, for which the Kd is 7.46 nM.

The values are drawn from patent US20220119513A1 (ZOETIS SERVICES, published 2022).
